Reference: patent publication US6822073 (KIMBERLY CLARK WORLDWIDE, dated 2004)
Bridges are numbered along the chain shown (N, C = ends). Where no end group is shown, it is not given here.

Key:
[1] = biological target: T1, bovine pancreatic trypsin (bovine, UniProt P00760 24-246); experiment: isothermal titration calorimetry, 30 °C
T1 construct: It was dialyzed into the ITC buffer and flowed over the chip in SPR
Method: Figure 6: FIG. 6 provides an ITC analysis of the interaction between SAP and bovine pancreatic trypsin. SAP was dissolved in 20 mM cacodylate (pH 7.0), 20 mM NaCl at a final concentration of 2 mM. Trypsin was dialyzed into the same buffer and was used in the calorimeter cell at a concentration of 20 µM. No binding is evident throughout the titration. The temperature was maintained at 30° C. Forty injections of 5 µL each were employed with a 240 second re-equilibrium time between injections.
The ability of SAP, SAP-1, and SAP-2 to bind bovine pancreatic trypsin was measured by isothermal titration calorimetry (ITC). […] Under all experimental conditions, there is no detectable binding.

[2] = biological target: T1, bovine pancreatic trypsin; experiment: ITC, SAP-2 (1.0 mM) injected into trypsin (20 µM), 25 °C (FIG. 8)
[3] = biological target: T1, bovine pancreatic trypsin; experiment: ITC, SAP-1 (1 mM) injected into trypsin (20 µM), 293 K
Method: Figure 7: FIG. 7 provides an ITC analysis of the interaction between SAP-1 and bovine pancreatic trypsin. SAP-1 was dissolved in 20 mM cacadylate (pH 7.0), 20 mM NaCl at a final concentration of 1 mM. Trypsin was dialyzed into the same buffer and was used in the calorimeter cell at a concentration of 20 µM. The temperature was maintained at 20° C. Forty injections of 5 µL each were employed with a 240 second re-equilibrium time between injections.

[4] = biological target: T1, bovine pancreatic trypsin; experiment: ITC, SAP-1 injected into trypsin, 303 K

T1 sequence (P00760 24-246): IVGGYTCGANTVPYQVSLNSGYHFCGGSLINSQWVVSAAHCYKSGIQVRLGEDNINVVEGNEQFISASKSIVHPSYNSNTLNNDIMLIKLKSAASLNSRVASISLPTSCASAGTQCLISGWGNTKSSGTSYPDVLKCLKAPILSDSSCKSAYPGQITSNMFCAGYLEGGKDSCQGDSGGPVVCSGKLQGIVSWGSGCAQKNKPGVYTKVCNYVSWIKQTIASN

B1: SAP (Synthetic Antibody Peptide), parental peptide backbone (designed binder)
chain: MCPSQPTYPGDPGPVEDLIRFYDNLQQWLNCVTAAC
modifications: disulfide 2-31
notes: Re-engineered avian pancreatic polypeptide with no insert; It was expressed in E. coli from pSAPe and purified; also called SAP peptide; SAP molecule
B1: no binding [1].

B2: SAP-2 (SAP backbone with the library-selected YKLKY insert) (designed binder)
chain: CPSQPTYPGDPYKLKYGPVEDLIRFYDNLQQWLNCVTAAC
notes: It was expressed in E. coli; In SPR it was coupled to the chip through the C-terminal cysteine thiol; also called recombinant SAP-2
For B2, the Ka [2] was 640000 M⁻¹, the Stoichiometry [2] was 0.995 and the ΔH [2] was -31.2 kcal/mol. For the same binder, the ΔS [2] was -16.2 cal mol^-1 K^-1.

B3: SAP-1 (SAP backbone with the PYRIRF insert from Bovine Pancreatic Trypsin Inhibitor) (designed binder)
chain: CPSQPTYPGDPPYRIRFGPVEDLIRFYDNLQQWLNCVTAAC
notes: It was expressed in E. coli; In SPR it was coupled to the chip through the C-terminal cysteine thiol
Binder B3 has a Ka [3] of 1.65e+06 M⁻¹, a Stoichiometry [3] of 0.975 and a ΔH [3] of -26.1 kcal/mol. The ΔS [3] was -11.6 cal mol^-1 K^-1, the Ka [4] was 2.4e+06 M⁻¹ and the Stoichiometry [4] was 0.99. The ΔH [4] was -15.4 kcal/mol and the ΔS [4] was -21.1 cal mol^-1 K^-1.
